The values that follow come from patent publication US20100056762A1 (published 2010).

In assay [1] the target is wild-type epidermal growth factor receptor (wtEGFR) (human) (UniProt P00533). Briefly: Scatchard, A431 cells.
In another assay the target is wtEGFR-FLAG (human) (UniProt P00533). Briefly: FACS, Ba/F3 cells; reference M2 anti-FLAG. (In general: In flow cytometry, cells or beads pass a laser one at a time.)
The target in assay [2] is C271A/C283A EGFR mutant (human) (UniProt P00533). Briefly: FACS, Ba/F3 cells, four clones; reference M2 anti-FLAG.
The target of assay [3] is T1, EGFR peptide 287-302 (mAb806 peptide epitope) (human, disulfide 1-16).
T1 peptide: CGADSYEMEEDGVRKC
Briefly: BIAcore, immobilised peptide, antibody 200 nM.

Bridges are numbered along the chain shown (N, C = ends). Where no end group is shown, it is not given here.

In assay [1], 528 antibody displayed a receptors per cell (receptors per cell) of 2e+06. For the same molecule, the values for the ratio of antibody binding mAb 528/M2 (ratio of median fluorescence) (with wtEGFR-FLAG (human); in assay [2]) were 1.37 and 1.08, respectively.

B1: mAb1133 (antibody, V domains shown)
VH: DVQLQGSGPSLVKPSQSLSLTCTVTGYSITSDYAWNWIRQFPGNKLEWMGYISYSGNTRYNPSLRSRISITRDTSKNQFFLQLNSVTTEDTATYYCATAGRGFPYWGQGTLVTVSA
VL: DILMTQSPSSMSVSLGDTVNITCHSSQDINSNIGWLQQKPGKSFKGLIYHGTNLDDGVPSRFSGSGSGADYSLTISSLESEDFADYYCVQYGQFPWTFGGGTKLEIKR
notes: murine IgG2a; also called 1133 antibody; clone 1133
Regarding B1, the “maximal binding (RU)” value in assay [3] was found to be 800 RU.
